Laboratory results taken from patent US5681819.

Experiments:
[1] = biological target: receptor on the rat intestine surface that binds the C-tail of BAL (CT-receptors)
[2] = biological target: receptor on the rat intestine surface that binds the C-tail of BAL (CT-receptors); remark: listed apart in the source
[3] = biological target: receptor on the rat intestine surface that binds the C-tail of BAL (CT-receptors); remark: listed apart in the source
[4] = biological target: receptor on the mouse small intestine surface that binds the C-tail of BAL (CT receptor); assay: 125I-labelled protein retained in ligated mouse small intestine segments after washing; mean of 3 experiments

With “rat endogenous intestinal BAL (from UniProt P07882) (enzyme)” the cholesterol uptake of rat intestine after removal of bound BAL with EGTA [1] was 16 % of control.

B1: isolated C-tail of human milk BAL (protein)
chain: ALPTVTDQEATPVPPTGDSEATPVPPTGDSETAPVPPTGDSGAPPVPPTGDSGAPPVPPTGDSGAPPVPPTGDSGAPPVPPTGDSGAPPVPPTGDSGAPPVPPTGDSGAPPVPPTGDAGPPPVPPTGDSGAPPVPPTGDSGAPPVTPTGDSETAPVPPTGDSGAPPVPPTGDSEAAPVPPTDDSK
modifications: about 8 to 10 O-linked oligosaccharides per C-tail molecule, most if not all on threonine (fucose, galactose, galactosamine, glucosamine)
For B1, the cholesterol uptake of rat intestine segments from 3H cholesterol oleate [2] was 10 % of control.

B2: native human milk bile salt-activated lipase (enzyme)
chain: AKLGAVYTEGGFVEGVNKKLGLLGDSVDIFKGIPFAAPTKALENPQPHPGWQGTLKAKNFKKRCLQATITQDSTYGDEDCLYLNIWVPQGRKQVSRDLPVMIWIYGGAFLMGSGHGANFLNNYLYDGEEIATRGNVIVVTFNYRVGPLGFLSTGDANLPGNYGLRDQHMAIAWVKRNIAAFGGDPNNITLFGESAGGASVSLQTLSPYNKGLIRRAISQSGVALSPWVIQKNPLFWAKKVAEKVGCPVGDAARMAQCLKVTDPRALTLAYKVPLAGLEYPMLHYVGFVPVIDGDFIPADPINLYANAADIDYIAGTNNMDGHIFASIDMPAINKGNKKVTEEDFYKLVSEFTITKGLRGAKTTFDVYTESWAQDPSQENKKKTVVDFETDVLFLVPTEIALAQHRANAKSAKTYAYLFSHPSRMPVYPKWVGADHADDIQYVFGKPFATPTGYRPQDRTVSKAMIAYWTNFAKTGDPNMGDSAVPTHWEPYTTENSGYLEITKKMGSSSMKRSLRTNFLRYWTLTYLALPTVTDQEATPVPPTGDSEATPVPPTGDSETAPVPPTGDSGAPPVPPTGDSGAPPVPPTGDSGAPPVPPTGDSGAPPVPPTGDSGAPPVPPTGDSGAPPVPPTGDSGAPPVPPTGDAGPPPVPPTGDSGAPPVPPTGDSGAPPVTPTGDSETAPVPPTGDSGAPPVPPTGDSEAAPVPPTDDSKEAQMPAVIRF
modifications: O-linked oligosaccharides in the C-tail, primarily on threonine; 125I-labelled in the mouse intestine binding experiment
In the case of B2, the Cholesterol Uptake [3] is reported as 14.4 nmol/g/h and the Bound [4] is reported as 384 ng/cm.

B3: recombinant truncated form of bile salt-activated lipase (T-BAL, residues 1-538 lacking the carboxy terminal end) (enzyme)
chain: AKLGAVYTEGGFVEGVNKKLGLLGDSVDIFKGIPFAAPTKALENPQPHPGWQGTLKAKNFKKRCLQATITQDSTYGDEDCLYLNIWVPQGRKQVSRDLPVMIWIYGGAFLMGSGHGANFLNNYLYDGEEIATRGNVIVVTFNYRVGPLGFLSTGDANLPGNYGLRDQHMAIAWVKRNIAAFGGDPNNITLFGESAGGASVSLQTLSPYNKGLIRRAISQSGVALSPWVIQKNPLFWAKKVAEKVGCPVGDAARMAQCLKVTDPRALTLAYKVPLAGLEYPMLHYVGFVPVIDGDFIPADPINLYANAADIDYIAGTNNMDGHIFASIDMPAINKGNKKVTEEDFYKLVSEFTITKGLRGAKTTFDVYTESWAQDPSQENKKKTVVDFETDVLFLVPTEIALAQHRANAKSAKTYAYLFSHPSRMPVYPKWVGADHADDIQYVFGKPFATPTGYRPQDRTVSKAMIAYWTNFAKTGDPNMGDSAVPTHWEPYTTENSGYLEITKKMGSSSMKRSLRTNFLRYWTLTYLALPTVTDQEAT
modifications: not glycosylated (expressed in E. coli); 125I-labelled in the mouse intestine binding experiment
B3 showed a Cholesterol Uptake [3] of 7.32 nmol/g/h and a Bound [4] of 33 ng/cm.
